Article PMC9194504, “Chondroitin Sulfates Control Invasiveness of the Basal-Like Breast Cancer Cell Line MDA-MB-231 Through ROR1” (Frontiers in Oncology, 2022)

Biological target: T1, Recombinant human ROR1-Fc chimera (human, UniProt Q01973 30-406)
T1 construct: receptor tyrosine kinase-like orphan receptor 1 (ROR1), human; recombinant ROR1-Fc chimera, R&D Systems Cat. No. 9490-RO; also called receptor tyrosine kinase-like orphan receptor 1; recombinant ROR1; source: bought: R&D Systems (Cat. No. 9490-RO)
T1 sequence (Q01973 30-406, change not shown): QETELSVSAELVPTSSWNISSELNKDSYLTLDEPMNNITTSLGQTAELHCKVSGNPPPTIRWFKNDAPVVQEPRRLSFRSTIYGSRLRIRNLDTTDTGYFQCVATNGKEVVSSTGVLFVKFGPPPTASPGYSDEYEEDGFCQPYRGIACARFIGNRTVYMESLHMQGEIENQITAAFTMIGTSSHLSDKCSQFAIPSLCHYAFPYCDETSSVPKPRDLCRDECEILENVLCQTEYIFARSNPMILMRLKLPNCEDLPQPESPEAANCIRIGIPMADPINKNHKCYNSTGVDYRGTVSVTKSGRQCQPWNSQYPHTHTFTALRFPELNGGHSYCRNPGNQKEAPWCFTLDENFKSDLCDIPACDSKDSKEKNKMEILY
Assay: SPR; Biacore X100; ROR1-Fc amine-coupled on a CM5 chip (~3,200 RU); protein analyte premixed with CS-E (CS-E:protein molar ratio 7:1), 30 μl/min, 120 s, dissociation 130 s, 25°C; 50 mM Tris-HCl pH 7.5
Conditions: both partners purified

binding result: binds
B1: recombinant human DKK1 (ligand, UniProt O94907 32-266, looked up)
chain: TLNSVLNSNAIKNLPPPLGGAAGHPGSAVSAAPGILYPGGNKYQTIDNYQPYPCAEDEECGTDEYCASPTRGGDAGVQICLACRKRRKRCMRHAMCCPGNYCKNGICVSSDQNHFRGEIEETITESFGNDHSTLDGYSRRTTLSSKMYHTKGQEGSVCLRSSDCASGLCCARHFWSKICKPVLKEGQVCTKHRRKGSHGLEIFQRCYCGEGLSCRIQKDHHQASNSSRLHTCQRH
notes: Dickkopf-1 (DKK1), human, recombinant, R&D Systems Cat. No. 5439-DK/CF; also called Dickkopf-1; source: bought: R&D Systems (Cat. No. 5439-DK/CF)
